Source: patent US8241646B2, “Method for generating active antibodies against a resistance antigen, antibodies obtained by said method and their uses” (Pierre Fabre Medicament, priority 2006, dated 2012)

B1: 1A6: monoclonal antibody, heavy chain SEQ ID No. 7, light chain SEQ ID No. 8; hybridoma CNCM I-3612; IgM k (antibody, V domains shown)
VH: EVQLQQSGPELVKPGASVKISCKTSGYTFTEYTLHWVKQSHGKSLEWIGGIDPNNGGTSYNQKFKGKATLTVDKSSSTAYMELRSLTSEDSAVYLCARSNSYYFDYWGQGTTLTVSS
VL: DIQMTQTTSSLSASLGDSVTISCRARQDIRNFLNWYQQRPDGTVKLLIYYTSRLHSGVPSRFSGSGSGTDYSLTISNLDQEDVATYFCQQGNTLPFTFGSGTKLEIK
modifications: mus musculus
notes: hybridoma CNCM I-3612; IgM k
B2: 1A9: monoclonal antibody, heavy chain SEQ ID No. 15, light chain SEQ ID No. 16; hybridoma CNCM I-3613; IgG1 k (antibody, V domains shown)
VH: QIQLVQSGPELKKPGETVKISCKASGQTFTNYGMNWVKQAPGKGLKWMGWINTYTGEPTYADDFKGRFAFSLETSASTAYLQINNLKNEDTATYFCARGGYYRYAAYWGQGTLVTVSA
VL: DIQMTQSPASLSASVGETVTITCRASGNIHNYLAWYQQKQGKSPQLLVYNAKTLADGVPSRFSGSGSGTQYSLKINSLQPEDFGCYFCQHFWTTPYTFGGGTKLELI
modifications: mus musculus
notes: hybridoma CNCM I-3613; IgG1 k
B3: 2E11: monoclonal antibody, heavy chain SEQ ID No. 23, light chain SEQ ID No. 24; hybridoma CNCM I-3615; IgG1 k (antibody, V domains shown)
VH: EVQLQQSGAEVVKPGASVKLSCTASGFNIKDTYMHWVKQRPEQGLEWIGRIDPANGNTKSDPKFQGKAIKTADTSSNTAYLQLSSLTSEDTAVYYCTSGYTNYVWFTYWGQGTLVTVSA
VL: DIVMSQSPSSLAVAAGEKVTMSCKASQSLLNSRTRKNYLAWYQQKPGQSPKLLIYWASTRESGVPDRFTGSGSGTDFSLTISSVQAEDLAVYYCKQSYNLYTFGGGTKLEIK
modifications: mus musculus
notes: hybridoma CNCM I-3615; IgG1 k
B4: 3G7: monoclonal antibody, heavy chain SEQ ID No. 39, light chain SEQ ID No. 40; hybridoma CNCM I-3616; IgM (antibody, V domains shown)
VH: QVQLQQSGPELVRPGTSVKISCKASGYTFTNYWLGWVKQRPGHGLEWIGDIFPGGIYTNYNEKIKGEATLTADTSSSTAYLQLSSLTSEDSFVYFCARFDDFDPFFASWGQGTLVTVSA
VL: DVLMTQTPLSLPVSLGDQASISCRSSQTIVHSNGNTYLEWYLQKPGQSPKLLIYKVSNRFSGVPDRFSGSGSGTDFTLNISRVEAEDLGIYYCFQSSRVPYTFGGGTKLEIK
modifications: mus musculus
notes: hybridoma CNCM I-3616; IgM
B5: 3C11: monoclonal antibody, heavy chain SEQ ID No. 31, light chain SEQ ID No. 32; hybridoma CNCM I-3614; IgM k (antibody, V domains shown)
VH: QVQLKESGPGLVAPSQSLSITCTVSGFSLSSYGVHWVRQPPGKGLEWLGVIWVGGTTNFKSALMSRLSISKDNSKSQVFLKMNSLQTDDTAMYYCARERPYGNPLVDWGQGTLVTVSA
VL: DIVMTQSHKFMSTSVGDRVSITCKASQDVSTAVAWYQQKPGQSPKLLIYSASYRYTGVPDRFTGSGSGTDFTFTISSVQAEDLAVYYCQQHYSNPRTFGGGTKLEIK
modifications: mus musculus
notes: hybridoma CNCM I-3614; IgM k

What was measured:
different cell lines = test: Recognition of different cell lines by the antibodies with the FACSCAN instrument; assay type: cell-based; conditions: FACSCAN analysis of a panel of tumor lines
Text: The hybridomas secreting antibodies recognizing the resistant tissues, and recognizing neither the tumors from the control batch PBS nor the native A549 cell which was used for establishing the tumor in vivo, are cloned and frozen. The antibodies are then produced in ascite liquid, purified, retested in immunohistochemistry before being tested in vivo on cells expressing a surface structure or antigen recognized by the antibodies (these cells were selected beforehand by FACSCAN analysis of a non-exhaustive panel of tumor lines available for each antibody).
Table 6 below as for it, groups the cells recognized by these antibodies (Recognition of the antibodies selected in histology with the FACSCAN instrument, of different cell lines).

BxPC3 cells = test: Pancreas xenograft model BxPC3; assay type: in vivo, athymic "Nude" mice; conditions: 1 mg/dose two times a week; results in FIG. 7
Protocol: 10.10^6 BxPC3 cells are grafted on athymic “Nude” mice. Five days after the grafting, the tumors are measurable and the mice are divided into two batches of six mice with tumors of homogenous size. The mice are either treated with PBS (negative control) or with the antibody 2E11 (1 mg/dose), two times a week. Tumor volume tracking is carried out twice a week.
The results are illustrated in FIG. 7.

Row | Molecule | In vivo model (cells recognized by these antibodies) (different cell lines; clone D10) | In vivo model (cells recognized by these antibodies) (different cell lines) | anti-tumoral activity (tumor volume) (BxPC3 cells)
1 | B1 | LnCap/HT29 |  | 
2 | B2 |  | HepG2/H69/LnCap | 
3 | B3 |  | HT29/BxPC3/H69 | validate the functional activity
4 | B4 |  | DU145 | 
5 | B5 |  | Colo205 | 
